# Assay results reported in the DeepSol protein solubility set.
# Assay: soluble on expression in E. coli; label from the status in PepcDB or PDB records
row,Sequence,soluble on expression in E. coli
1,MGSDKIHHHHHHMANLNDFTFFVHVVDHGGFAPAARALNLPKSTLSKRVAELEKDLGVRLINRTSRHFAVTESGKDFYRHAAAMMIEAEAAENVVRGRLAEPSGTVRITASVPTAQLSLAPLLPQLALAYPKLRVTLHATDRFVDVIQDGFDLAVRDHFAPLPDSGLVQRRIGFQAKLIVASPLYLQGNGTPERPEDLDHHDGLLTSLASEGWVMERADGSTVSVSPRPRFVADESRVLREAALAGLGITTLPGKLCQQEIESGTLIRILPEWTAGKVMTTILMPHRRGQLPSVRATVDFIAERLVDG,not soluble
2,MGSDKIHHHHHHMAQALYANVAVVNSKEHKDLKIKPINHFRYAAKIQSCPISDIEFFPCSLSHPIMFAKAEDGKIVPLALMGLERETNQFVSSEGVWKEGEYMPAFLRRYPFIMVRDPENTRMVVGLDMDAEGVNRDEGRELFDEKSEASEFAKSAMKFLTDFQEAFDRTQNFLAKMSELELFDDAVFNWEFKGVTSSFGGFMRIDEKKLDELDDETLLALTRSGHYKLIVAHLVSLRRFQRLVDWKMRPAS,not soluble
3,MGSDKIHHHHHHMAQHEMSPRANSETDTVVLDAPGKSVYESLCEKINLTPVKATRPMESFQSADALSESSLDERVAQAMTVFLKMIQDSSQQVDRLDKSLLDFHIAHLDQQISQQLDAIMHHETFQQIESAWRGLKFLVDRTDFRKNVKIEVLDVSKDALRQDFEDTPELIQSGLYLHTYIQEYDTPGGEPVGSIISNYEFDRSQQDIVLLRNISKVSAAAHMPFIGSVSPKFFGKDSMDEVASIRDIGNYFDRAEYLKWKSFRDSDDARYIGLTLPRFLARLPYGPDTVPVRAFNYTEAVKGPDHSRYLWGNASFAFAVNMVQSFIKNGWCVQIRGPQAGGLVEDLPIHLYDLGTGNQAKIPTEVLIPETREFEFANLGFIPLSYYKNHDFACFFSAHSAQKPALYDTKEATANSRVNARLPYIFLLSRIAHYLKLIQRENIGTTKDRRVLELELNTWIKTLVTEMTDPGDELQASHPLREAKVIVEDIEDNPGFFRVKLFIVPHFQIEGMDINLSLVSQMPKAKTDRLLSASTAI,not soluble
4,MGSDKIHHHHHHMARLAVEPLEALARYQGEPALAAMRREFLPAVTDPVWRGLVEEFLTLDEPLTPYAHQCRRVWSFAASPGSGAHHAHIGGLALHVLQDLRNARALAEAHEARGLALDRGLLFAAIMLHDCLKRFVYDFDDDYALVKAEDPFIARHEDHHSWMLRELVARGVDRTLVLAVAAMHGLDDVSLASGVRPLAVVNHYLEIGLTGLEMQPEDVRAEHSIGFLSDSDWPWSGRAQQRAREVAAALSPRFEVTTGYMNLYLGSRFSFEHIDSLLRTKGHDGTVDHLSTLLEKQG,not soluble
5,MGSDKIHHHHHHMASLVDQITDLYVRMAELERRNRNRRRKGTIAEVSDDKSKYRVKLSEQAGKPYLTPWIKARTLAAGGVKVDVLYSVGEQVDVVSENGEMTDAQIDFSTYSDDNARENSDTPFHIKIGDTVIEASAGQAKVTSPKVIVESPNVQLGGDGGKRVARIGDLVHVMSGSSSGKWPIVEGSEHVFAVD,not soluble
6,MGSDKIHHHHHHMASVYWIPKLRIIPRTKFVTICPITLTLSLSMQYSPNLAHGTLLRRYKRFLADVLLDDGTEITLHCPNTGSMKNCLFPGETVWFSTSNNPKRKYAHTWEQSSTPDKQLIGINTGRANALAEEAINLGVIKELTGYDRLQREVKYGEENSRIDILLSSDTRASCYIEVKSCTLLEEGSTSGRGYFPDSVTVRGQKHLRELIHMVKQGHRAVLLFVVQHSGINSVSPARHIDVAYSELFTQALDAGVEVLAYQTQMSPQESQILTSCPVIT,not soluble
7,MGSDKIHHHHHHMATLYLIEQGAEIGCDGERIVVRRAGEIIGSVPLVKVDDIVIFGNIGISTPAIKRLLDRSIEVTFMTVDGSYQGRLVGQVTAHVALRQAQYACAADSDRTLRLAQSFVEGKLRNQRALLQRFSRNRATPPAEALAAADDLDAYIKRVRRTTRLSALLGVEGSATARYFAGLRSLIEPEWDFRSRQRRPPPDPVNLLLSFGYTLLTHKTLGAVQAAGFDPYLGFLHSLDYGRPSLALDLMEEFRPLLIDSLVVRVCNDGRLRLEHFQPGDEARPVIITDEGKRAFLTAFEERMRTEATHPEGADSGPGKVTYQRCIALQARRLARVIRGQQERYEPFTAR,not soluble
8,MGSDKIHHHHHHMATRSATQPVSPQVARLARGLKLGANSMLVTLFGDVVAPRPQALWLGSLIRLAEPFGINDRLVRTATFRLTSDDWLNATRIGRRSYYGLSEAGLQRCLHAGKRIYAGDAPDWDGRWTLALVRGDARATIRQRLKRELLWEGFGAIAPGVYAHPNADANSLGEIIRAAHAQDFVAVMDATSLETFSIRPLQTLMHQTFKLGDVASAWQALLRRFSPVLADAHAMTPADAFFVRTLLLHEYRRVLLRDPNLPEQLLPTDWPGRTARDLCRDMYAALLDASEDYLREVVEVSEGTLANATRLLRRRFAMA,not soluble
9,MGSDKIHHHHHHMATTNAASTVRELIREHYSALTQAERKFANALLDNYPAAGLASITIVASNVGVSSPTVARMVKKLGFKGYPEFHKALLSELEAKGVGPTKRRDNWSSEAPQEHLLNRFSQAVTNNLQQTFAHIDTERFDQATRQLADTEKRLYIVGGRITQALADYAFTHFQAVRPGVTHMTSSSGTWPHYVLDMEPGDTLLIFDVRRYETNLLRLTEIVKKRGAQIVLFTDQWGSPISTLADLTFHCRVEIPSGWDSNVATMMLLETMIASVQEQRWPDARDRYERLDELFDKTHFFRKFT,not soluble
10,MGSDKIHHHHHHMATVTTSEGSAERREADSGALARGLNILSRLHEAARPLSLQDIAESVGLPTTTCHRLLQSLDVAGYVYREGSLYCPTPRAACPLPLEHPLNRLRRDTAPLMRELQERHGPSVLLIAFLGDHRVTVECVAGNYSVTPYFDTTVTAPLHASVSGKILLSDRTDEQRDALLGQAPYSARTEWTIRDRAALYAELEEVRKRGWATNQNENVIGICAVGSRLAAPSGRALGAIVLTGPSRFFAKGFDTMRDDLLQACQMLNSTSHAIRTMTQLLGV,not soluble
11,MGSDKIHHHHHHMAVRMLDIARRFNMLSERIRRESVELGIPAIDPEDGLILSSAAFYVGGGTGSYVDAGAGIGYSTIWIAYGAYHRCTDITCKIVAIEYDVELASILSRNLREVEAMFRGRIEFEVVSGDALDYFSRLEEKGREVFDMAFVDIEKGDYPEALERLENLLTAGGVAAFYNAFQPPPPPLFFDMVSKRPWKPVVLPTPAGLLLAVKTAG,not soluble
12,MGSDKIHHHHHHMAYLEVLRYLYHKRPMGKVKPGLERISMLLSKLGNPHLEYKTIHIGGTNGKGSVANMVSNILVSQGYRVGSYYSPHLSTFRERIRLNEEYISEEDVVKIYETMEPILNELDKEEIFSPSFFEVVTAMAFLYFAEKNVDIAVLEVGLGGRLDATNVVFPLCSTIVTVDRDHEKTLGYTIEQIAWEKSGIIKERVPLVTGERKREALKVMEDVARKKSSRMYVIDKDFSVKVKSLKLHENRFDYCGENTFEDLVLTMNGPHQIENAGVALKTLEATGLPLSEKAIREGLKNAKNLGRFEILEKNGKMYILDGAHNPHGAESLVRSLKLYFNGEPLSLVIGILDDKNREDILRKYTGIFERVIVTRVPSPRMKDMNSLVDMAKKFFKNVEVIEDPLEAIESTERATVVTGSLFLVGYVREFLTTGKINEEWKL,soluble
13,MGSDKIHHHHHHMCMTSPDQLTASESADTASAHKRVLVAAPRGYCAGVDRAVETVEKALEKYGAPVYVRKEIVHNRYVVDTLAERGAIFVDETTEAPEGAHLVFSAHGVSPAVHKEAEALSLKTLDATCPLVTKVHNEVKRFARDGYHILLVGHEGHEEVEGTAGEAPDVTHLVDGVESVDKLPEFLHDEKLIWLSQTTLSVDETMTIVKKLHERFAHLQDPPSDDICYATQNRQVAVKAIAAESDVVIVVGSQNSSNSKRLVEVALQAGAGASYLVDYAHQIDESWLDGATTVGVSSGASVPEILVRGVLEFLDARGFHDVKEITTAAEKITFALPRDLRPART,not soluble
14,MGSDKIHHHHHHMCSPTNFLYEPFSSDAVTQNYDQNLKCTKCGAYYSMACSLREQNVWTCLFCNQSNSNAELPLVPSNTYTLTSAKKEILSRRTIMIIDAICDPHELNYLVSILCNNYITRQQEPLSIITIQQSGHVILHNAVNHRRDAVFSINEFMTKYNLDKLNASYFEKKISEINQESYWFDKSTQGSLRKLLREICKIANKVNISSKRDKRCTGLALFVSSVLASQCSLSAYCHIVSFLNGPCTKGGGKVMSRERGESMRQNHHFESKSSQLQLSKSPTKFYKKMLEKFANQSLIYEFFIASLDQIGILEMSPLITSSMAVSQFDSFNDERFAMSFQKYLNLRDHNAIYNCHSKIMTAKNAIVVKDFPKYSLNPKNLSLPLEISLGHNSAEAPIQFQTTFENQTEKYIRIETLLLPKANRSFGAQNEIVFSMKKIASRIIDSFAYSSKHTKELMKQLFLLPNQIRGKDVDMVNLIQWCYHIYRSPILSVRNTSPDERYLFLHRIINASKDTCLSLCKPFIWSYSDLKHDWIVLDVPLTRAQILQDDKTTICVDGGSYLVLRRGKLLEKEGRELCCKLLNDLQRFPQPLYVETKTGGSQDRFLKSKIIPLDITDKETLGTEDMTFNEYFNLFTDLSGSK,not soluble
15,MGSDKIHHHHHHMDAFEKVRTRLETQPQEEYEVVNAEIKHGGFVYYQEGCCLVRSKDEEADSDNYEVLFNLEELKLDQPFIDCIRVAPDEKYVAAKIRTEDSETSTLVVVKLSDQPVMEASFPNVSSFEWVKDEEDEDVLFYTFQRNLRCHDVYRATFGDNKRNERFYTEKDPSYFVFLYLTKDSRFLTLNIMNKTTSEVWLIDGLSPWDPPVLIQKRIHGMLYYVEHRDDELYILTNVGEPTEFKLMRTAADAPAIMNWDLFFTMKRNTKVVDLDMFKDHCVLFLKHSNLLYVNVIGLADDSVRSLKLPPWACGFIMDTNSDPKNCPFQLCSPIRPPKYYTYKFAEGKLFEETGHEDPITKTSRVLRIEAKSKDGKLVPMTVFHKTDSEDLQRKPLLVHVYGAYGMDLKMNFRPEKRVLVDDGWILAYCHVRGGGELGLQWHADGRLTKKLNGLADLVACIKTLHSQGFSQPSLTTLSAFSAGGVLVGALCNSKPELLRAVTLEAPFLDVLNTMLDTTLPLTLEELEEWGNPSSDEKHKNYIKRYCPCQNIKPQHYPSVHITAYENDERVPLKGIVNYTEKLKEAVAEHTKGAGEGYQPPNIILDIQPGGNHVIEDSHKKITTQMKFLYEELGLDSTDAFEALKKYLKF,soluble
16,MGSDKIHHHHHHMDAKTIDNRIRRAFNGIRQAFRGKIARVKAAGGVQQIQVEGLEGETVQDLEHAENFGFTSNPPAGSDCVVVPLGGKTSHGIIVTTTNGAYRITGLAEGETAVYNADGAKMVLKKGRIIEIDCETLNIKAPGGVNIDAPNVGCTAQITAEGQINGNGGMAVKGGSGTSFTGNVQMVGDLDTTGKLTNNGKNVGSDHKHNGDSGGTTSDPL,not soluble
17,MGSDKIHHHHHHMDAPSTTPHDAVFKQFLMHAETARDFLEIHLPVELRELCDLNTLHLESGSFIEESLKGHSTDVLYSVQMQGNPGYLHVVIEHQSKPDKKMAFRMMRYSIAAMHRHLEADHDKLPLVVPILFYQGEATPYPLSMCWFDMFYSPELARRVYNSPFPLVDITITPDDEIMQHRRIAILELLQKHIRQRDLMLLLEQLVTLIDEGYTSGSQLVAMQNYMLQRGHTEQADLFYGVLRDRETGGESMMTLAQWFEEKGIEKGIQQGRQEVSQEFAQRLLSKGMSREDVAEMANLPLAEIDKVINLI,not soluble
